Data on one protein can be found in US7101989 (UNIVERSITY OF NORTH CAROLINA AT CHAPEL HILL, dated 2006).

The data set concerns the molecule itself. The data set is described as follows: SDS-PAGE of outer membranes solubilised at 37 C or 100 C.

B1: DsrA (Ducreyi Serum Resistance A protein) of H. ducreyi strain 35000 (other)
chain: QQPPKFAGVSSLYSYEYDYGKGKWTWSNEGGFDIKVPGIKMKPKEWISKQATYLELQHYMPYTPVLVTYAPGVSPSPILLYPMSDPDQLGINRQQLKLNLYSYFNDLRHDFKLKVLDARISKNKQNIDTISKYLLELGTYLDDSYRMMEQNTHNINKLSKELQTGLANQSALSMLVQPNGVGKTSVSAAVGGYRDKTALAIGVGSRITDRFTAKAGVAFNTYNGGMSYGASVGYEF
notes: In Western blots DsrA was denatured, from outer membranes or total cellular proteins; In the vitronectin experiment it was on whole surface-iodinated bacteria and was then solubilised in detergent; It forms multimers of unstated number; also called 30 kDa protein; 30 kDa band
With B1, the binding result was “binds”.
